“Also recorded” adds a separate entry of the source.
Test system: glycosylated synapsin I
Assay: Lectin affinity chromatography with UEAI
Type: binding, rat
Settings: olfactory bulb lysate (500 μg), Western blotting
Method: Lectin Affinity Chromatography with UEAI.
UEAI lectin conjugated to agarose (Vector Laboratories) or control protein A conjugated to agarose (Vector Laboratories) was packed into a minicolumn (50 μL bed volume; Bio-Rad), and the columns were run in parallel. The resin was equilibrated with 10 column volumes of lectin binding buffer (100 mM Tris pH 7.5, 150 mM NaCl, 1 mM CaCl2, 1 mM MgCl2, 0.5% NP-40, and 0.2% sodium deoxycholate supplemented with EDTA-free Complete™ protease inhibitors). Olfactory bulb tissue from P3 rat pups was lysed in lectin binding buffer by sonication on ice. The lysate was clarified by centrifugation at 12000×g for 10 min, and the total protein concentration was determined using the BCA protein assay (Pierce). Lysate (500 μg) was bound batch-wise with gentle end-over-end mixing at rt for 4 h. The agarose was then allowed to settle, and the flow-through was passed over the column three additional times. The columns were washed with 40 column volumes of lectin binding buffer, followed by 10 column volumes of lectin binding buffer lacking detergent. […] Following concentration, samples were boiled in 1× sample buffer (35 μL of 200 mM Tris pH 6.8, 400 mM DTT, 8% SDS, 0.2% bromophenol blue, and 40% glycerol) and analyzed by SDS-PAGE and western blotting as described above. Synapsin I was detected using mouse anti-synapsin I ascites (Synaptic Systems) at 0.1 μg/mL.

B1: UEAI: lectin conjugated to agarose used for affinity chromatography (protein)
chain: SDDLSFKFKNFSQNGKDLSFQGDASVIETGVLQLNKVGNNLPDETGGIARYIAPIHIWNCNTGEVASFITSFSFFMETSANPKAATDGLTFFLAPPDSPLRRAGGYFGLFEDTKDNDSSYQTVAVEFDTIGSPVNFDDPGFPHIGIDVNRVKSINAERWNKRYGLNNVANVEIIYEASSKTLTASLTYPSDQTSISVTSIVDLKEILPEWVSVGFSGGTYIGRQATHEVLNWYFTSNLINTNS
- capture and detection of glycosylated synapsin I: failed to pull-down and detect glycosylated synapsin I; also recorded: failed to capture and detect glycosylated synapsin I

From patent US9766245B2, “Method of detecting cancer based on glycan biomarkers” (California Institute of Technology, priority 2013, dated 2017)
